In publication PMC10288639:

Key:
WT HLA-A*02:01/β2m = assay: fluorescence polarisation
[1] = target: G120C/H31C HLA-A*02:01/β2m complex (open HLA-A*02:01); assay: fluorescence polarisation

Row | Substance | IC50 (WT HLA-A*02:01/β2m) [nM] | IC50 [1] [nM] | fold of the apparent association rate constant k^app on over WT [1] [fold]
1 | TAX9 (peptide) | 250 | 250 | 
2 | fluorophore-labeled TAX9 (TAMRA-TAX9) (peptide) |  |  | > 10
